Measured values taken from US12679878B2, “CRF2 receptor agonists and their use in therapy” (SANOFI, priority 2020, dated 2026).
Starred links: 1 amine or outer side, 2 acyl side, 3 side chain; linkers in the order of their positions; H or OH if unused. Non-standard residues stand in square brackets, D forms with d. Groups on a side chain read outwards from the residue. No end group written: not given here. *: point of attachment. C18 diacid = O=C(O)CCCCCCCCCCCCCCCCC(=O)*; γGlu = O=C(O)[C@H](CCC(=O)[*:2])N[*:1]; AEEA = NCCOCCOCC(=O)O; Aib = CC(C)(N)C(=O)O

T1: anti-target CRF1R receptor (UniProt P34998 24-415, limits assumed)
T1 sequence (looked up): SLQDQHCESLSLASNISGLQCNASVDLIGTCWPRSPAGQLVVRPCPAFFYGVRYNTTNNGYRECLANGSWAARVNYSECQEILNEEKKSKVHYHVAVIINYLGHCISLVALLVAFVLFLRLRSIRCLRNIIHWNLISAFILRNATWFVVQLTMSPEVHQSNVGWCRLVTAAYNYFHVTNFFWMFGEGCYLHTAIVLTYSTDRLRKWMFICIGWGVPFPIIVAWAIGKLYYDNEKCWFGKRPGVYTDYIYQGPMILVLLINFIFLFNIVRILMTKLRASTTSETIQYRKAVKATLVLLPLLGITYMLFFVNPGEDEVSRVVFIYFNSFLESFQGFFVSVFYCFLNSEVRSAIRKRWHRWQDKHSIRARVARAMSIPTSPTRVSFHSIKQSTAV

B1: peptide of SEQ ID NO: 100 (peptide)
peptide: IVLSLDVPIKLK([AEEA-AEEA-γGlu-C18 diacid])KILLKQERQKK[Aib]REQAETN[Aib]QILAQV-NH2
modifications: N-terminus assumed
SMILES: CC[C@H](C)[C@H](N)C(=O)N[C@H](C(=O)N[C@@H](CC(C)C)C(=O)N[C@@H](CO)C(=O)N[C@@H](CC(C)C)C(=O)N[C@@H](CC(=O)O)C(=O)N[C@H](C(=O)N1CCC[C@H]1C(=O)N[C@H](C(=O)N[C@@H](CCCCN)C(=O)N[C@@H](CC(C)C)C(=O)N[C@@H](CCCCNC(=O)COCCOCCNC(=O)COCCOCCNC(=O)CC[C@H](NC(=O)CCCCCCCCCCCCCCCCC(=O)O)C(=O)O)C(=O)N[C@@H](CCCCN)C(=O)N[C@H](C(=O)N[C@@H](CC(C)C)C(=O)N[C@@H](CC(C)C)C(=O)N[C@@H](CCCCN)C(=O)N[C@@H](CCC(N)=O)C(=O)N[C@@H](CCC(=O)O)C(=O)N[C@@H](CCCNC(=N)N)C(=O)N[C@@H](CCC(N)=O)C(=O)N[C@@H](CCCCN)C(=O)N[C@@H](CCCCN)C(=O)NC(C)(C)C(=O)N[C@@H](CCCNC(=N)N)C(=O)N[C@@H](CCC(=O)O)C(=O)N[C@@H](CCC(N)=O)C(=O)N[C@@H](C)C(=O)N[C@@H](CCC(=O)O)C(=O)N[C@H](C(=O)N[C@@H](CC(N)=O)C(=O)NC(C)(C)C(=O)N[C@@H](CCC(N)=O)C(=O)N[C@H](C(=O)N[C@@H](CC(C)C)C(=O)N[C@@H](C)C(=O)N[C@@H](CCC(N)=O)C(=O)N[C@H](C(N)=O)C(C)C)[C@@H](C)CC)[C@@H](C)O)[C@@H](C)CC)[C@@H](C)CC)C(C)C)C(C)C
B2: peptide of SEQ ID NO: 136 (peptide)
peptide: IVLSLD[dV]PIKLK([AEEA-AEEA-γGlu-C18 diacid])QILLKQERQKK[Aib]RQKAEKNKQILAQV-NH2
modifications: N-terminus assumed
SMILES: CC[C@H](C)[C@H](N)C(=O)N[C@H](C(=O)N[C@@H](CC(C)C)C(=O)N[C@@H](CO)C(=O)N[C@@H](CC(C)C)C(=O)N[C@@H](CC(=O)O)C(=O)N[C@@H](C(=O)N1CCC[C@H]1C(=O)N[C@H](C(=O)N[C@@H](CCCCN)C(=O)N[C@@H](CC(C)C)C(=O)N[C@@H](CCCCNC(=O)COCCOCCNC(=O)COCCOCCNC(=O)CC[C@H](NC(=O)CCCCCCCCCCCCCCCCC(=O)O)C(=O)O)C(=O)N[C@@H](CCC(N)=O)C(=O)N[C@H](C(=O)N[C@@H](CC(C)C)C(=O)N[C@@H](CC(C)C)C(=O)N[C@@H](CCCCN)C(=O)N[C@@H](CCC(N)=O)C(=O)N[C@@H](CCC(=O)O)C(=O)N[C@@H](CCCNC(=N)N)C(=O)N[C@@H](CCC(N)=O)C(=O)N[C@@H](CCCCN)C(=O)N[C@@H](CCCCN)C(=O)NC(C)(C)C(=O)N[C@@H](CCCNC(=N)N)C(=O)N[C@@H](CCC(N)=O)C(=O)N[C@@H](CCCCN)C(=O)N[C@@H](C)C(=O)N[C@@H](CCC(=O)O)C(=O)N[C@@H](CCCCN)C(=O)N[C@@H](CC(N)=O)C(=O)N[C@@H](CCCCN)C(=O)N[C@@H](CCC(N)=O)C(=O)N[C@H](C(=O)N[C@@H](CC(C)C)C(=O)N[C@@H](C)C(=O)N[C@@H](CCC(N)=O)C(=O)N[C@H](C(N)=O)C(C)C)[C@@H](C)CC)[C@@H](C)CC)[C@@H](C)CC)C(C)C)C(C)C
B3: peptide of SEQ ID NO: 87 (peptide)
peptide: IVLSLDVPIKLK([AEEA-AEEA-γGlu-C18 diacid])QILLKQERQKKQREKAKTNKQILAQV-NH2
modifications: N-terminus assumed
SMILES: CC[C@H](C)[C@H](N)C(=O)N[C@H](C(=O)N[C@@H](CC(C)C)C(=O)N[C@@H](CO)C(=O)N[C@@H](CC(C)C)C(=O)N[C@@H](CC(=O)O)C(=O)N[C@H](C(=O)N1CCC[C@H]1C(=O)N[C@H](C(=O)N[C@@H](CCCCN)C(=O)N[C@@H](CC(C)C)C(=O)N[C@@H](CCCCNC(=O)COCCOCCNC(=O)COCCOCCNC(=O)CC[C@H](NC(=O)CCCCCCCCCCCCCCCCC(=O)O)C(=O)O)C(=O)N[C@@H](CCC(N)=O)C(=O)N[C@H](C(=O)N[C@@H](CC(C)C)C(=O)N[C@@H](CC(C)C)C(=O)N[C@@H](CCCCN)C(=O)N[C@@H](CCC(N)=O)C(=O)N[C@@H](CCC(=O)O)C(=O)N[C@@H](CCCNC(=N)N)C(=O)N[C@@H](CCC(N)=O)C(=O)N[C@@H](CCCCN)C(=O)N[C@@H](CCCCN)C(=O)N[C@@H](CCC(N)=O)C(=O)N[C@@H](CCCNC(=N)N)C(=O)N[C@@H](CCC(=O)O)C(=O)N[C@@H](CCCCN)C(=O)N[C@@H](C)C(=O)N[C@@H](CCCCN)C(=O)N[C@H](C(=O)N[C@@H](CC(N)=O)C(=O)N[C@@H](CCCCN)C(=O)N[C@@H](CCC(N)=O)C(=O)N[C@H](C(=O)N[C@@H](CC(C)C)C(=O)N[C@@H](C)C(=O)N[C@@H](CCC(N)=O)C(=O)N[C@H](C(N)=O)C(C)C)[C@@H](C)CC)[C@@H](C)O)[C@@H](C)CC)[C@@H](C)CC)C(C)C)C(C)C
B4: peptide of SEQ ID NO: 132 (peptide)
peptide: IVLSLD[dV]PIKLK([AEEA-AEEA-γGlu-C18 diacid])QILLEQERQK[Aib]QREQAEKNKQILERV-NH2
modifications: N-terminus assumed
SMILES: CC[C@H](C)[C@H](N)C(=O)N[C@H](C(=O)N[C@@H](CC(C)C)C(=O)N[C@@H](CO)C(=O)N[C@@H](CC(C)C)C(=O)N[C@@H](CC(=O)O)C(=O)N[C@@H](C(=O)N1CCC[C@H]1C(=O)N[C@H](C(=O)N[C@@H](CCCCN)C(=O)N[C@@H](CC(C)C)C(=O)N[C@@H](CCCCNC(=O)COCCOCCNC(=O)COCCOCCNC(=O)CC[C@H](NC(=O)CCCCCCCCCCCCCCCCC(=O)O)C(=O)O)C(=O)N[C@@H](CCC(N)=O)C(=O)N[C@H](C(=O)N[C@@H](CC(C)C)C(=O)N[C@@H](CC(C)C)C(=O)N[C@@H](CCC(=O)O)C(=O)N[C@@H](CCC(N)=O)C(=O)N[C@@H](CCC(=O)O)C(=O)N[C@@H](CCCNC(=N)N)C(=O)N[C@@H](CCC(N)=O)C(=O)N[C@@H](CCCCN)C(=O)NC(C)(C)C(=O)N[C@@H](CCC(N)=O)C(=O)N[C@@H](CCCNC(=N)N)C(=O)N[C@@H](CCC(=O)O)C(=O)N[C@@H](CCC(N)=O)C(=O)N[C@@H](C)C(=O)N[C@@H](CCC(=O)O)C(=O)N[C@@H](CCCCN)C(=O)N[C@@H](CC(N)=O)C(=O)N[C@@H](CCCCN)C(=O)N[C@@H](CCC(N)=O)C(=O)N[C@H](C(=O)N[C@@H](CC(C)C)C(=O)N[C@@H](CCC(=O)O)C(=O)N[C@@H](CCCNC(=N)N)C(=O)N[C@H](C(N)=O)C(C)C)[C@@H](C)CC)[C@@H](C)CC)[C@@H](C)CC)C(C)C)C(C)C
B5: peptide of SEQ ID NO: 99 (peptide)
peptide: IVLSLDVPIKLK([AEEA-AEEA-γGlu-C18 diacid])KILLKQERQKK[Aib]REQAEKNKQILAQV-NH2
modifications: N-terminus assumed
SMILES: CC[C@H](C)[C@H](N)C(=O)N[C@H](C(=O)N[C@@H](CC(C)C)C(=O)N[C@@H](CO)C(=O)N[C@@H](CC(C)C)C(=O)N[C@@H](CC(=O)O)C(=O)N[C@H](C(=O)N1CCC[C@H]1C(=O)N[C@H](C(=O)N[C@@H](CCCCN)C(=O)N[C@@H](CC(C)C)C(=O)N[C@@H](CCCCNC(=O)COCCOCCNC(=O)COCCOCCNC(=O)CC[C@H](NC(=O)CCCCCCCCCCCCCCCCC(=O)O)C(=O)O)C(=O)N[C@@H](CCCCN)C(=O)N[C@H](C(=O)N[C@@H](CC(C)C)C(=O)N[C@@H](CC(C)C)C(=O)N[C@@H](CCCCN)C(=O)N[C@@H](CCC(N)=O)C(=O)N[C@@H](CCC(=O)O)C(=O)N[C@@H](CCCNC(=N)N)C(=O)N[C@@H](CCC(N)=O)C(=O)N[C@@H](CCCCN)C(=O)N[C@@H](CCCCN)C(=O)NC(C)(C)C(=O)N[C@@H](CCCNC(=N)N)C(=O)N[C@@H](CCC(=O)O)C(=O)N[C@@H](CCC(N)=O)C(=O)N[C@@H](C)C(=O)N[C@@H](CCC(=O)O)C(=O)N[C@@H](CCCCN)C(=O)N[C@@H](CC(N)=O)C(=O)N[C@@H](CCCCN)C(=O)N[C@@H](CCC(N)=O)C(=O)N[C@H](C(=O)N[C@@H](CC(C)C)C(=O)N[C@@H](C)C(=O)N[C@@H](CCC(N)=O)C(=O)N[C@H](C(N)=O)C(C)C)[C@@H](C)CC)[C@@H](C)CC)[C@@H](C)CC)C(C)C)C(C)C

Legend:
[1] = molecular target: T1, anti-target CRF1R receptor; test: cell-based or functional assay
[2] = molecular target: rat CRF2R α receptor (rat, UniProt P47866 20-411); test: cell-based or functional assay
Chain of rat CRF2R α receptor (P47866 20-411): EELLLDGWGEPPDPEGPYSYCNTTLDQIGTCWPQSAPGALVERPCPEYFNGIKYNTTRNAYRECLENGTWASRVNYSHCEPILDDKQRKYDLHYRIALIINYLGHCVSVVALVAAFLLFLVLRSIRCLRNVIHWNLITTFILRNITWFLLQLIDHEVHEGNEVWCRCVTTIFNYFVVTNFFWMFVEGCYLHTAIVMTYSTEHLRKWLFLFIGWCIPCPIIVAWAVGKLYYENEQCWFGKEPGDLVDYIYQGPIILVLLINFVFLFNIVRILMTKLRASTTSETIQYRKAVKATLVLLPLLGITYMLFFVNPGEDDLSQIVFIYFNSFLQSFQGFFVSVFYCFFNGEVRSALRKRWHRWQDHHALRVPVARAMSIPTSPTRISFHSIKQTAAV

Binder	EC50[nM] 0% HSA (cAMP, CRF1R-overexpression CHO cells) [1]	Emax (%) (cAMP, CRF1R-overexpression CHO cells) [1]	EC50 [nM], 0% HSA (cAMP, A7R5 cells) [2]
B1	> 1000 nM	5.06%	7.52 nM
B2	> 1000 nM	21.8%	0.38 nM
B3	> 1000 nM	-0.2%	1.49 nM
B4	> 1000 nM	36.9%	0.79 nM
B5	> 1000 nM	3.25%	0.62 nM
